Numbering of substitutions follows the chain as printed. Names and notes keep the numbering of the source.
T1: mouse tenascin-C rCd4-His-FBG (rat; mouse, UniProt P05540 207-392, limits assumed)
T1 construct: domain: domains 3 and 4; C-terminal FBG fusion; biotinylated in the ELISA screen; also called Mu TNC; mouse TNC rCd4-His-FBG; not shown: 6His tag
T1 sequence (chain (part 1 of 2)): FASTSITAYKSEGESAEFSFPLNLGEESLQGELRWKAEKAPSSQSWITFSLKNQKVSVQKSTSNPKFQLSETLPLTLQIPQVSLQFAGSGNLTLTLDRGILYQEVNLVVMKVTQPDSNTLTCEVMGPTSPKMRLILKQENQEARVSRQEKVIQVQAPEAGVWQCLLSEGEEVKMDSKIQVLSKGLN
T1 sequence (chain (part 2 of 2)): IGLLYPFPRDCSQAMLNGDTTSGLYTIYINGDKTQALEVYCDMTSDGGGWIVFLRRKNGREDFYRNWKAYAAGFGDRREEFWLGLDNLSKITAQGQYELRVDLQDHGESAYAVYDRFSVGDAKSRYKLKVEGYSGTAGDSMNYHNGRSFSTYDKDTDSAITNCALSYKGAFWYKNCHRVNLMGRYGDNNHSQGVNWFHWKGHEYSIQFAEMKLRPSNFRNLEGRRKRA

T2: human tenascin-C rCd4-His-FBG (rat; human, UniProt P05540 207-392, limits assumed)
T2 construct: domain: domains 3 and 4; C-terminal FBG fusion; biotinylated in the ELISA and HTRF screens; also called Hu TNC; human TNC rCd4-His-FBG; not shown: 6His tag
T2 sequence (chain (part 1 of 2)): T1 sequence (chain (part 1 of 2))
T2 sequence (chain (part 2 of 2)): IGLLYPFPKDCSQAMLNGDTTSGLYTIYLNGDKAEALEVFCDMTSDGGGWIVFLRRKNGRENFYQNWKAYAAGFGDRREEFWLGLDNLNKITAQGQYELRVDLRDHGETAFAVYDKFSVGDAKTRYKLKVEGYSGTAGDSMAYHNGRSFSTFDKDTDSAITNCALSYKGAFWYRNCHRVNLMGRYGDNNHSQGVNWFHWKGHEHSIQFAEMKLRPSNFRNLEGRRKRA

B1: 162_02_F3 scFv (scFv, V domains shown, not shown: small tags and cut ends)
VH: EVRLVQSGAEVKKPGASVKVSCKVSGYTLTELSMHWVRQAPGKGLEWMGGFDPEDGETIYAQKFQGRVTMTEDTSTDTAYMELSSLRSEDTAVYYCATAQKETYALTYWGQGTLVTVSS
VL: DIQMTQSPASLPTSVGDRVTITCRASQYIQGFLNWYQQKPGKAPRLLIYAASTLQDGVPSRFSGSGYGTDFTLTISSLQPEDFATYYCQNQYRGPWTFGQGTKVEIK
notes: E. coli supernatant scFv
B2: 161_01_A12 scFv (scFv, V domains shown, not shown: small tags and cut ends)
VH: B1 VH with K101P, E102T, T103A, Y104L, L106N
VL: B1 VL with N90Q, Q91S, R93S, G94T
notes: E. coli supernatant scFv
B3: 160_01_H4 scFv (scFv, V domains shown, not shown: small tags and cut ends)
VH: B1 VH with A99G, Q100R, K101F, E102V, T103W, Y104E
VL: B1 VL with N90Q, Q91S, R93S, G94T
notes: E. coli supernatant scFv
B4: 160_01_A4 scFv (scFv, V domains shown, not shown: small tags and cut ends)
VH: B1 VH with Y104L, A105G, L106N, T107A, Y108I
VL: B1 VL with N90Q, Q91S, R93S, G94T
notes: E. coli supernatant scFv
B5: 160_01_G2 scFv (scFv, V domains shown, not shown: small tags and cut ends)
VH: B1 VH with A99Y, Q100T, K101L, E102D, T103N, Y104M
VL: B1 VL with N90Q, Q91S, R93S, G94T
notes: E. coli supernatant scFv
B6: 161_01_C09 scFv (scFv, V domains shown, not shown: small tags and cut ends)
VH: B1 VH with K101L, E102P, T103Y, Y104L, L106Q
VL: B1 VL with N90Q, Q91S, R93S, G94T
notes: E. coli supernatant scFv
B7: 160_01_F1 scFv (scFv, V domains shown, not shown: small tags and cut ends)
VH: B1 VH with K101S, E102P, T103W, Y104S, A105G, L106M
VL: B1 VL with N90Q, Q91S, R93S, G94T
notes: E. coli supernatant scFv
B8: 161_01_C11 scFv (scFv, V domains shown, not shown: small tags and cut ends)
VH: B1 VH with T103W, Y104L, A105P, L106D, T107V, Y108T
VL: B1 VL with N90Q, Q91S, R93S, G94T
notes: E. coli supernatant scFv
B9: 165_13_A4 human IgG4 (antibody, V domains shown)
VH: QVQLVESGGGLVQPGRSLRLSCAASGFTFDDYAMHWVRQAPGKGLEWVSGISGSGGSTYYADSVKGRFTISRDNAKNSLYLQMNSLRAEDTALYYCAKDKYPVLDTFDIWGQGTMVTVSS
VL: DIQMTQSPASLPTPVGDRVTITCRASQYIQGFLNWYQQKPGKAPKLLIYDASNLETGVPSRFSGSGSGTDFTLTISSLQPEDFATYYCQQSYSTPQTFGQGTKVDIKR
notes: human IgG4 with hinge S241P
B10: 160_01_D6 human IgG4 (antibody, V domains shown)
VH: B1 VH with K101A, E102D, T103P, Y104H, A105L, L106F
VL: B9 VL with P14S, K45R, D50A, N53T, E55Q, T56D, S67Y, Q96W, D105E
notes: human IgG4 with hinge S241P; also called Antibody 160 01 D6 (derived from 2A5)
B11: 165_13_B3 human IgG4 (antibody, V domains shown)
VH: B9 VH with D99A, K100L, Y101A, P102R, V103G, L104H
VL: B9 VL
notes: human IgG4 with hinge S241P
B12: 162_02_C1 human IgG4 (antibody, V domains shown)
VH: B1 VH
VL: DIQMTQSPASLPTSVGDRVTITCRASQYIQGFLNWYQQKPGKAPRLLIYAASTLQDGVPSRFSGSGYGTDFTLTISSLQPEDFATYYCLHHYRAPWTFGQGTKVEIKR
notes: human IgG4 with hinge S241P; also called Antibody 162 02 C1 (derived from 2A5)
B13: 160_01_F1 human IgG4 (antibody, V domains shown)
VH: B1 VH with K101S, E102P, T103W, Y104S, A105G, L106M
VL: B12 VL with L89Q, H90Q, H91S, R93S, A94T
notes: human IgG4 with hinge S241P; also called Antibody 160 01 F1 (derived from 2A5)
B14: 180_11_F5 human IgG4 (antibody, V domains shown)
VH: B9 VH with D99V, K100M, Y101R, P102T, V103G
VL: B9 VL
notes: human IgG4 with hinge S241P; also called Antibody 180 11 F5 (derived from B12)
B15: 160_01_E3 human IgG4 (antibody, V domains shown)
VH: B1 VH with A99Q, Q100R, K101Y, E102V, T103W, Y104E
VL: B12 VL with L89Q, H90Q, H91S, R93S, A94T
notes: human IgG4 with hinge S241P; also called Antibody 160 01 E3 (derived from 2A5)
B16: 162_02_C2 human IgG4 (antibody, V domains shown)
VH: B1 VH
VL: B12 VL with L89M
notes: human IgG4 with hinge S241P; also called Antibody 162 02 C2 (derived from 2A5)
B17: 165_13_E1 human IgG4 (antibody, V domains shown)
VH: B9 VH with K100I, Y101S, P102A, L104M, T106V, F107P, D108Q, I109T
VL: B9 VL
notes: human IgG4 with hinge S241P
B18: 163_02_A12 human IgG4 (antibody, V domains shown)
VH: B1 VH
VL: B12 VL with A94E
notes: human IgG4 with hinge S241P; also called Antibody 163 02 A12 (derived from 2A5)
B19: 160_01_H4 human IgG4 (antibody, V domains shown)
VH: B1 VH with A99G, Q100R, K101F, E102V, T103W, Y104E
VL: B12 VL with L89Q, H90Q, H91S, R93S, A94T
notes: human IgG4 with hinge S241P; also called Antibody 160 01 H4 (derived from 2A5)
B20: 163_02_D11 human IgG4 (antibody, V domains shown)
VH: B1 VH
VL: B12 VL with R93K, A94S
notes: human IgG4 with hinge S241P; also called Antibody 163 02 D11 (derived from 2A5)
B21: 161_01_C11 human IgG4 (antibody, V domains shown)
VH: B1 VH with T103W, Y104L, A105P, L106D, T107V, Y108T
VL: B12 VL with L89Q, H90Q, H91S, R93S, A94T
notes: human IgG4 with hinge S241P; also called Antibody 161 01 C11 (derived from 2A5)
B22: 162_02_F4 human IgG4 (antibody, V domains shown)
VH: B1 VH
VL: B12 VL with L89M, A94S
notes: human IgG4 with hinge S241P; also called Antibody 162 02 F4 (derived from 2A5)

Key:
[1] = target: T1, mouse tenascin-C rCd4-His-FBG; experiment: anti-FLAG capture ELISA, scFv supernatant
[2] = target: T2, human tenascin-C rCd4-His-FBG; experiment: HTRF competition; competitor d2-labelled B12 IgG
Description: All samples and reagents were prepared in assay buffer (50 mM NaPO₄, 0.1% BSA, 0.4 M KF, pH 7.0) at 4× the stated concentration. 5 μl of each reagent was subsequently added to low volume 384-well assay plates (Greiner, 784075) to give a final reaction volume of 20 μl. IgG antibodies were labelled using the d2 labelling kit (CisBio, 62D2DPEA) as directed by the manufacturer. Streptavidin europium cryptate (CisBio, 610SAKLA, Lot#25C) was used at a final concentration of 1.8 ng active moiety (SA) per 20 μl reaction as recommended by the manufacturer. Biotinylated rCd4-His-FBG was prepared using EZ-link Sulfo-NHS-LC-Biotin reagent (Thermo Scientific, 21327) the extent of biotinylation was quantified using biotinylation fluorescence quantitation kit (Thermo Scientific, 46610). Where appropriate, supernatants containing scFv (prepared as described above for ELISA assays) were added to the 384-well assay plate at a final dilution of 1/20 (i.e. 1/5 dilution in assay buffer followed by addition of 5 μl diluted sample to the 20 μl FRET assay). […] Samples were incubated for approximately 1 h at room temperature and the FRET signal was determined using a BMG Pherastar instrument: excitation=320 nm; emission=620 nm and 665 nm; integration start time=60 μs; integration time=500 μs; 100 flashes per well. For competition assays containing culture supernatant, biotinylated rCd4-His-FBG antigen was pre-incubated with streptavidin europium cryptate for 45 min prior to addition of reagents to the assay plate. All FRET signals are presented as ΔR, where R=(E665/E620×104) and ΔR=(Rsample−Rbackground fluorescence).

[3] = target: T2, human tenascin-C rCd4-His-FBG; experiment: SPR off-rate screen, captured IgG4 supernatant, 25 C
Description: (§1) The 31 scFv of interest were sub-cloned into a human IgG4 expression vector for generation of antibodies as human IgG4 with a hinge-stabilising mutation (S241P; Angal et al, 1993). […] Briefly, surface plasmon resonance (SPR) experiments were performed using a BIAcore T100 instrument and followed the protocol according to the Human antibody capture kit protocol (GE, BR-1008-39). For off-rate screening, 10,000 response units (RU) of anti-human Fc IgG (GE, BR-1008-39) was immobilised on flow-cells (FC1 and FC2) of a Series 5 CM5 dextran sensor chip (BR-1005-30) using EDC/NHS cross-linking chemistry according to the amine coupling kit protocol (GE, BR-1000-50). Culture supernatants containing expressed IgG4 were diluted 1:2 with 2×PBS-T and injected into FC2 (flowrate 5 μl/min, 60 s contact time) to enable antibody capture at 25° C. […] A fixed concentration of antigen (15 nM of human and mouse TNC rCd4-His-FBG and 100 nM of human TNR rCd4-His-FBG) was injected with a flow-path via FC 1 (reference flow cell) and FC 2 (antibody capture flow cell), with a flow rate of 30 μl/min, and the association and dissociation phases measured over 1 and 5 min time periods, respectively. Regeneration of the binding surface employed 3M MgCl₂ with 30 s contact time. Off rates were determined by reference cell subtraction and fitting the sensogram experimental data assuming a 1:1 interaction using BIAevaluation software (GE, BR-1005-97).

[4] = target: T1, mouse tenascin-C rCd4-His-FBG; experiment: as above
Description: as §1

Binder | fold improvement in binding over parent [1] [fold] | % inhibition of FRET signal [2] [%] | koff [3] [s⁻¹] | koff [4] [s⁻¹]
B1 | ≥ 10 | ≥ 83 | – | –
B2 | ≥ 10 | ≥ 90 | – | –
B3 | ≥ 10 | ≥ 90 | – | –
B4 | ≥ 10 | ≥ 90 | – | –
B5 | ≥ 10 | ≥ 90 | – | –
B6 | ≥ 10 | ≥ 90 | – | –
B7 | ≥ 10 | ≥ 90 | – | –
B8 | ≥ 10 | ≥ 90 | – | –
B9 | – | – | 0.000872 | 0.00797
B10 | – | – | 1.05e-05 | 0.0559
B11 | – | – | 1.4e-06 | 0.03
B12 | – | – | < 1e-05 | 0.0016
B13 | – | – | 4e-06 | –
B14 | – | – | 2.6e-05 | 1
B15 | – | – | – | 0.0559
B16 | – | – | 1.15e-05 | 0.0017
B17 | – | – | 1.4e-06 | 0.0577
B18 | – | – | 3.2e-07 | 0.00094
B19 | – | – | 1.6e-05 | 0.0171
B20 | – | – | 3.2e-07 | 0.00098
B21 | – | – | 2.2e-07 | –
B22 | – | – | 5.9e-07 | 0.001

Reference: patent US20170306005A1 (NASCIENT, published 2017)
